Substrate in data set [1]: C[N+](C)(C)CCOC(N)=O
The following applies: Mus musculus; A9L.

Substrate in data set [2]: COC(=O)C1CN=CNC1
The conditions noted are these: Mus musculus; A9L.

B1: Muscarinic acetylcholine receptor M2 (Mus musculus), Q9ERZ4 (protein)
chain: MNNSTNSSNNGLAITSPYKTFEVVFIVLVAGSLSLVTIIGNILVMVSIKVNRHLQTVNNYFLFSLACADLIIGVFSMNLYTLYTVIGYWPLGPVVCDLWLALDYVVSNASVMNLLIISFDRYFCVTKPLTYPVKRTTKMAGMMIAAAWVLSFILWAPAILFWQFIVGVRTVEDGECYIQFFSNAAVTFGTAIAAFYLPVIIMTVLYWHISRASKSRIKKEKKEPVANQDPVSPSLVQGRIVKPNNNNMPGGDGGLEHNKIQNGKAPRDGGTENCVQGEEKESSNDSTSVSAVASNMRDDEITQDENTVSTSLGHSKDDNSRQTCIKIVTKTQKGDACTPTSTTVELVGSSGQNGDEKQNIVARKIVKMTKQPAKKKPPPSREKKVTRTILAILLAFIITWAPYNVMVLINTFCAPCIPNTVWTIGYWLCYINSTINPACYALCNATFKKTFKHLLMCHYKNIGATR
Usually Km stands for the concentration of substrate that gives half-maximal velocity. Turning to B1, the Km in data set [1] was 0.046 µM; in data set [2] it was 0.014 µM.

The values above are taken from ChEMBL document CHEMBL1129993, “Synthesis and biological characterization of 1,4,5,6-tetrahydropyrimidine and 2-amino-3,4,5,6-tetrahydropyridine derivatives as selective m1 agonists” (J Med Chem, 1997).
